Experimental data from patent US20210139542A1.
Values belong to the substance of their own block, whether it stands above or below them.

What was measured:
HEWL-Hel-1024 (hen) [1] = target: HEWL-Hel-1024 (hen) (UniProt P00698); test: BLI, mAb on AHC biosensor, 100 nM antigen
[2] = target: Hen Egg White Lysozyme (HEWL), wild type (hen) (UniProt P00698); test: BLI, mAb on AHC biosensor, 100 nM antigen
HEWL-Full24 (hen) [3] = target: HEWL-Full24 (hen) (UniProt P00698); test: BLI, mAb on AHC biosensor, 100 nM antigen, footnote e bounds the value
HEWL-Full12 (hen) [4] = target: HEWL-Full12 (hen) (UniProt P00698); test: as above
[5] = target: Hen Egg White Lysozyme (HEWL), wild type (hen) (UniProt P00698); test: ELISA, HEWL derivative coated, antibody in tenfold dilutions, A450
HEWL-Hel-1024 (hen) [6] = target: HEWL-Hel-1024 (hen) (UniProt P00698); test: BLI, mAb on AHC biosensor, 100 nM antigen, footnote c bounds the value
HEWL-Hel-104 (hen) [7] = target: HEWL-Hel-104 (hen) (UniProt P00698); test: as above
HEWL-Full24 (hen) [8] = target: HEWL-Full24 (hen) (UniProt P00698); test: as above
HEWL-Full12 (hen) [9] = target: HEWL-Full12 (hen) (UniProt P00698); test: as above
HEWL-Hel-1012 (hen) [10] = target: HEWL-Hel-1012 (hen) (UniProt P00698); test: as above
HEWL-Hel-102 (hen) [11] = target: HEWL-Hel-102 (hen) (UniProt P00698); test: as above
HEWL-Hel-104 (hen) [12] = target: HEWL-Hel-104 (hen) (UniProt P00698); test: BLI, mAb on AHC biosensor, 100 nM antigen
HEWL-Hel-1012 (hen) [13] = target: HEWL-Hel-1012 (hen) (UniProt P00698); test: BLI, mAb on AHC biosensor, 100 nM antigen
HEWL-Hel-102 (hen) [14] = target: HEWL-Hel-102 (hen) (UniProt P00698); test: BLI, mAb on AHC biosensor, 100 nM antigen

Sequence of UniProt P00698 (P00698 19-147 limits assumed): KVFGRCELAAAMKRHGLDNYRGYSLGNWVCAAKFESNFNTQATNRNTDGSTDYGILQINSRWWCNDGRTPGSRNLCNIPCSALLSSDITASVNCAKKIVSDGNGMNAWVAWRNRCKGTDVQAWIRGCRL

Substance: D1.3 (antibody)
Kd (HEWL-Hel-1024 (hen) [1]): 11 nM
Kd [2]: 0.58 nM
Kd (HEWL-Full24 (hen) [3]): 11 nM
Kd (HEWL-Full12 (hen) [4]): 27 nM

Kd [2]: 2.3 nM
EC50 (read off the curve) [5]: 0.5 nM
Substance: D11.15 (antibody)

Substance: HyHEL-5 (antibody)
Kd [2]: 0.018 nM
Kd (HEWL-Hel-1024 (hen) [6]): 0.2 nM
Kd (HEWL-Hel-104 (hen) [7]): 0.14 nM
Kd (HEWL-Full24 (hen) [8]): 0.17 nM
Kd (HEWL-Full12 (hen) [9]): 0.36 nM
Kd (HEWL-Hel-1012 (hen) [10]): 0.11 nM
Kd (HEWL-Hel-102 (hen) [11]): 0.12 nM

Substance: HyHEL-10 (antibody)
Kd (HEWL-Hel-1024 (hen) [1]): 0.26 nM
Kd (HEWL-Hel-104 (hen) [12]): 0.091 nM
Kd (HEWL-Hel-1012 (hen) [13]): 0.055 nM
Kd (HEWL-Hel-102 (hen) [14]): 0.068 nM
